This note sets out measurements from paper PMC7666158 (2020).

The target in assay [1] is T1, JNK1-dc20 (JNK1 with the C-terminal 20 residues truncated) (human, UniProt P45983 1-427). As to the kind of experiment: FP.
Assay [2] concerns the target T1, JNK1-dc20 (JNK1 with the C-terminal 20 …). As to the kind of experiment: FP; EDTA.
Assay [3] shares this target. As to the kind of experiment: ITC; 2 mM EDTA. On the technique in general: In ITC the heat of successive injections is recorded.
For assay [4] the target is unchanged. The experiment in a line: ITC.

As usually defined, the Kd is a measure of binding affinity in units of concentration.

T1 sequence (P45983 other isoform, or with tags, fused parts or gaps): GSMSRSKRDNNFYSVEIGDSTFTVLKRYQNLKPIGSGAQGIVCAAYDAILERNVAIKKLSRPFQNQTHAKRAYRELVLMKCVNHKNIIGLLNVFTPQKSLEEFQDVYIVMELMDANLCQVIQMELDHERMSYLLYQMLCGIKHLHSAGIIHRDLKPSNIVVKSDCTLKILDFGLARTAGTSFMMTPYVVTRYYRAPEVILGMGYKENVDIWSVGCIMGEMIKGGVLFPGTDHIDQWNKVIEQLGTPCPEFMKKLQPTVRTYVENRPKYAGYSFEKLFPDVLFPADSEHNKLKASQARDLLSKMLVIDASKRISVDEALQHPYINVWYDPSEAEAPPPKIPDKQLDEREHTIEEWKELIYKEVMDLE

B1: MBP-ATF2(19–100) (domain or fragment)
chain: MSDDKPFLCTAPGCGQRFTNEDHLAVHKHKHEMTLKFGPARNDSVIVADQTPTPTRFLKNCEEVGLFNELASPFENEFKKAS
For B1, the Kd in assay [1] worked out at 3.5 µM; in assay [2] it was 53 µM. As for MSDDKPFLCTAPGCGQRFTNEDHLAVHKHKHEMTLKFGPA (domain or fragment) [ATF2(19–58)-His6 (MBP removed, for ITC)], the Kd in assay [3] was determined as 48 µM; in assay [4], 5.1 µM. Turning to MSDDKPFLCTAPGCGQRFTNEDHLAVHKHKHEMTLKFGPA (domain or fragment) [ATF2(19–58) as used in the competitive fluorescence polarisation assay], in assay [1], the Kd is 4.5 µM.

B2: MBP-c-Jun(1–78) (domain or fragment)
chain: MTAKMETTFYDDALNASFLPSESGPYGYSNPKILKQSMTLNLADPVGSLKPHLRAKNSDLLTSPDVGLLKLASPELER
Turning to B2, the Kd stood at 3.8 µM in assay [1] and 4.9 µM in assay [2].

B3: MBP-c-Jun(1–78) K35E (domain or fragment)
chain: MTAKMETTFYDDALNASFLPSESGPYGYSNPKILEQSMTLNLADPVGSLKPHLRAKNSDLLTSPDVGLLKLASPELER
Turning to B3, in assay [1], binding was characterised by a dissociation constant (Kd) of 55 µM.
